The numbers were not newly measured in article PMC2774623, which cites them from elsewhere.

Broadly, the Kd is the constant that tells how readily two partners part at equilibrium.

The data set has as its target CK2 alpha (Homo sapiens) (UniProt P68400). Briefly: SPR. A general note: In SPR one partner is held on a chip, and binding of the other changes the refractive index at the surface.

CK2 beta, sequence (P67870 2-215): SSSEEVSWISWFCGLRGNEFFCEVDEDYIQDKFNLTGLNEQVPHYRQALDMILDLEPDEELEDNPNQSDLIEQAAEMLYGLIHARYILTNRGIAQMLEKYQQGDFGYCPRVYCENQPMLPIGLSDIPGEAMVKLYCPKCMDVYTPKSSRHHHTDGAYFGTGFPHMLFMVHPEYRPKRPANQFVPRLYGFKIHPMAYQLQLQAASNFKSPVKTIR
CK2 alpha (Homo sapiens), sequence (P68400 whole entry): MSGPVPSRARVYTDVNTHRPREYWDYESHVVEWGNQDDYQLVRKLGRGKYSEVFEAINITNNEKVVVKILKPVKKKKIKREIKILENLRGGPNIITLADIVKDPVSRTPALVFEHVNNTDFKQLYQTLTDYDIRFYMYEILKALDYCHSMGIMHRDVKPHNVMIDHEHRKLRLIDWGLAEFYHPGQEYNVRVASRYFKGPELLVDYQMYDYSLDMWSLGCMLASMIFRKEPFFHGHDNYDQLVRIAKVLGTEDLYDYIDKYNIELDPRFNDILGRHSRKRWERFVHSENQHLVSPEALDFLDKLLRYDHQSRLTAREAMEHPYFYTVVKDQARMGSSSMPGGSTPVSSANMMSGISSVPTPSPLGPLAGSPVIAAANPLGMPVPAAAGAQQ

With CK2 beta (from UniProt P67870), the Kd was 0.0408 µM.
